T1: U-STAT1 (purified full-length unphosphorylated STAT1) (UniProt P42224 1-750)
T1 construct: also called Full-length STAT1
T1 sequence (looked up): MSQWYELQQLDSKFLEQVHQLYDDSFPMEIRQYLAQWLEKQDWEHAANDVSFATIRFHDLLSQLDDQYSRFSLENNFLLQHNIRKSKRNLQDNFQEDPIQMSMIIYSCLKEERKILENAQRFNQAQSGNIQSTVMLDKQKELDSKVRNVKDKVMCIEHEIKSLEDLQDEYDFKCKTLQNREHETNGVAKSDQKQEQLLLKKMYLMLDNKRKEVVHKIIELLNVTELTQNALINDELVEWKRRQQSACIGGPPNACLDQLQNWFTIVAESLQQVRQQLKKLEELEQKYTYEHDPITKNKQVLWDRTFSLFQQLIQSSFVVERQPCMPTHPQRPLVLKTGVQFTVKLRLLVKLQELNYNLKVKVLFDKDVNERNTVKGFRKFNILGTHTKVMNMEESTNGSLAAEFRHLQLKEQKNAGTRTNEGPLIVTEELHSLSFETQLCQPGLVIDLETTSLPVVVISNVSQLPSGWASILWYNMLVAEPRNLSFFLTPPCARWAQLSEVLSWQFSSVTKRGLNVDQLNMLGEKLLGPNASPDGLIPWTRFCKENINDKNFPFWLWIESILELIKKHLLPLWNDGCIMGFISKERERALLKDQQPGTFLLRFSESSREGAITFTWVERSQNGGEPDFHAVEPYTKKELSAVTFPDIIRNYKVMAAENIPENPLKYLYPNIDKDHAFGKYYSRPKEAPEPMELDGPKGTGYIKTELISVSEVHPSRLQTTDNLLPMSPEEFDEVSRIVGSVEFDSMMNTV

B1: pIFNGR1 5-mer peptide (peptide)
peptide: YDKPH
notes: also called pYDKPH; pIFNGR 5-mer
B2: GB1-018^T3 (domain or fragment)
chain: MWSVFIHGHDGSNKGSK
B3: GB1-018^T2 (domain or fragment)
chain: MWSVFIHGHDGSNKGSKTYTS
B4: GB1-018 (natural protein)
chain: MSSKGGSSGGMWSVFIHGHDGSNKGSKTYTSGGGGMWGGGSSSGVKSGVNGGVKSGTGKI

Key:
[1] = biological target: T1, U-STAT1 (purified full-length …); assay: ITC; details: both partners purified
[2] = biological target: T1, U-STAT1 (purified full-length …); assay: fluorescence polarisation; details: both partners purified

| Binder | Kd [1] [nM] | IC50 [2] [nM] | stoichiometry N [1] |
| --- | --- | --- | --- |
| B1 | 7600 |  |  |
| B2 | > 10000 | 17800 |  |
| B3 | 235 | 930 |  |
| B4 | 291 | 1260 | 1.02 |
